In general, Ki refers to the dissociation constant of the complex between target and ligand, obtained from inhibition or displacement. Higher therefore signals a looser hold on the target.

We go through 2 molecules from publication PMC4674680, “An in cellulo-derived structure of PAK4 in complex with its inhibitor Inka1” (Nature Communications, 2015).

The target of test [1] is T1, 6His–PAK4cat (PAK4 286–591) (human, UniProt O96013 286-591).
T1 construct: human PAK4 catalytic domain, residues 286–591, in pSY5 (His tagged); Residues 297–589 are seen in PDB 4XBU; also called purified PAK4; source: E. coli BL21-CodonPlus(DE3), purified (Ni-NTA; semi-automated Akta system for crystallization)
Put plainly: kinase inhibition assay; 50 nM purified PAK4cat, 10 μM GST-Raf1S338 peptide, 10 μM ATP (γ32P), 25 mM HEPES pH 7.3, 50 mM KCl, 10 mM MgCl2, 30 °C, 20 min; inhibitor pre-incubated with the kinase on ice 10 min; values from the intercepts of the inhibition graphs. Conditions: both partners purified.

For test [2], the target named is T1, 6His–PAK4cat (PAK4 286–591). As to the kind of experiment: crystal structure; in-vitro crystals, hanging drop, 6His–PAK4cat 5 mg/ml with 15-fold molar excess of peptide and two times molar excess of ATP, 0.1 M Tris–HCl pH 8.5, 12% PEG 8000, 25 °C, space group P4_(1)2_(1)2. Conditions: both partners purified.

T1 sequence (O96013 286-591): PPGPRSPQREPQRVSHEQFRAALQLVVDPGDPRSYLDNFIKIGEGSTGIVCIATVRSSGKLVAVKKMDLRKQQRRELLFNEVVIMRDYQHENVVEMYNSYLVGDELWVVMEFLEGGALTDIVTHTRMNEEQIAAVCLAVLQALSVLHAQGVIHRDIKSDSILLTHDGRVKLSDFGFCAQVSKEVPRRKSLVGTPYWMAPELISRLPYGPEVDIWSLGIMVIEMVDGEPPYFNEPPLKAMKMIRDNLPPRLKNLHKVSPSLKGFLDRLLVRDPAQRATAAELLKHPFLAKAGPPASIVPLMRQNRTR

B1: GST-iBox (Inka1 166–203) (domain or fragment)
chain: EAEDWTAALLNRGRSRQPLVLGDNCFADLVHNWMELPE
modifications: GST carrier left out. Limits 166-203 are the paper's, taken from the 4XBR fusion: Flag/SGS 1-12, iBox 13-50, EF linker 51-52, PAK4 278-591 from 53 (12+38+2+314=366). Entity position = paper number …
In test [1], B1 displayed a Ki of 30 nM.

B2: iBox 23mer synthetic peptide (peptide)
peptide: AEDWTAALLNRGRSRQPLVLGDW
notes: synthetic peptide of the amino-terminal part of the human Inka1 iBox (iBox is 166–203); residues 178–189 are seen in the structure; also called iBox24; synthetic iBox 24mer peptide; source: synthetic peptide
Consider B2, for which the binding result in test [2] is listed as “binds”.
